Measurements: the supplement of paper PMC7125110
± gives the standard error. This sample holds only a part of the variants without activity.

B1: glmS ribozyme (parent)
chain: AUAAAAGCGCCAGAACUACAGAAAUGUAGUUGACGAGGAGGAGGUUUAUCGAAUUUUCGGCGGAUGCCUCCAAA

Tests used:
Conditions in all cases: with glucosamine-6-phosphate
glucosamine-6-phosphate [1] = variants of: B1; experiment: self-cleavage kobs at 640 uM GlcN6P; higher = faster cleavage; RNA array
How it was run: (§1)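 kcat and KM were obtained from weighted Michaelis–Menten fits across concentrations of kobs values. Those came from one- or two-exponential decay fits to per-tile medians normalised to baseline and to non-cleaving reference variants. The variants were barcoded ribozymes transcribed in situ by E. coli RNA polymerase on sequenced MiSeq chips and tracked through a hybridised Cy3 probe at 37 °C, with 40 μM to 10 mM glucosamine-6-phosphate in HEPES/KCl/Mg(OAc)2 buffer flowed in.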

glucosamine-6-phosphate [2] = variants of: B1; experiment: self-cleavage kobs at 2500 uM GlcN6P; higher = faster cleavage; RNA array
How it was run: as §1

glucosamine-6-phosphate [3] = variants of: B1; experiment: self-cleavage kobs at 10000 uM GlcN6P; higher = faster cleavage; RNA array
How it was run: as §1

Variant	self-cleavage kobs at 640 uM GlcN6P (glucosamine-6-phosphate [1]) [s⁻¹]	self-cleavage kobs at 2500 uM GlcN6P (glucosamine-6-phosphate [2]) [s⁻¹]	self-cleavage kobs at 10000 uM GlcN6P (glucosamine-6-phosphate [3]) [s⁻¹]
C8U U30A G62C	< 1e-05		
G7C G9U C11G C16G U30G G43U G44U C61U	< 1e-05	< 1e-05	< 1e-05
G13C G38U U56G G63U U69C	< 1e-05	< 1e-05	
G44U C58A G59U	< 1e-05	< 1e-05	
C10A G41C C58U	< 1e-05		
A12U C67U C71U	0.000764 ± 0.0002	0.000592 ± 0.00018	
C11A A53U U69C C71U	0.000106 ± 4.9e-05	5.97e-05 ± 2.3e-05	
G32A A36U G62U C70G	0.000218 ± 8.5e-05		
C10A A12U G29A A39G A52G C67G	0.000283 ± 8.4e-05	0.000236 ± 7.4e-05	
A14C G38U G44A G63U C67U	< 1e-05		
A33G A39C G41A C50A	< 1e-05		
U54C U55G C58A	7.47e-05 ± 1.6e-05	0.000102 ± 1.2e-05	
G62A G63C C70A C71U	5.14e-05 ± 2.3e-05		
A15C C58A C67G C71G	4.54e-05 ± 1.8e-05		
A6U G43U C61U C71U	< 1e-05	< 1e-05	
U47A A52U A64G	7.01e-05 ± 1.7e-05	0.000177 ± 5.4e-05	
C8U G32C U45C	< 1e-05	< 1e-05	
G29U A39U G41U U65G	< 1e-05	< 1e-05	
A6U C8A C50U	< 1e-05		
A33G G59A	< 1e-05		< 1e-05
A36G A42G U56G	< 1e-05		
G32U A39G	0.0002 ± 3.6e-05	0.000485 ± 0.00015	

Variant	self-cleavage kobs at 640 uM GlcN6P (glucosamine-6-phosphate [1]) [s⁻¹]	self-cleavage kobs at 2500 uM GlcN6P (glucosamine-6-phosphate [2]) [s⁻¹]	self-cleavage kobs at 10000 uM GlcN6P (glucosamine-6-phosphate [3]) [s⁻¹]
G41C U47G G59U	< 1e-05	< 1e-05	
U30G A39C U54G	0.0002 ± 3.1e-05	0.00053 ± 8.2e-05	0.00136 ± 0.0002
G51U G66A	< 1e-05	< 1e-05	
A14G U49C	< 1e-05		
G37U G38U G43A	< 1e-05		
G9U U30G U31C A39C A64G	< 1e-05	< 1e-05	
A15C U56A U65G	5.97e-05 ± 2.3e-05	0.000177 ± 6.3e-05	0.000562 ± 0.00012
A12C U31C A48C A52U	< 1e-05	< 1e-05	
G29C A33G C68G	6.58e-05 ± 3e-05		
G9U A36G U45C A48C G60U C68G	< 1e-05	< 1e-05	< 1e-05
C11A C16G U57A C58G A64U	< 1e-05	< 1e-05	
G40A G43U C50A	< 1e-05		
G7C C11G G41A	< 1e-05	< 1e-05	
G43U G63U C71G	< 1e-05	< 1e-05	
G7A G29U C34U	< 1e-05		
C8A G40A C68U	< 1e-05		< 1e-05
C16A U55G C58G U65G	< 1e-05		
A14G C16G A39U A52C	< 1e-05		
G37A G63A C71A	< 1e-05	< 1e-05	
A6C G29U A33U	< 1e-05		
G32U G35U G40A U55A	< 1e-05		
A53G U57C	0.000146 ± 4.6e-05	0.000159 ± 4.1e-05	0.0005 ± 8.7e-05

Variant	self-cleavage kobs at 640 uM GlcN6P (glucosamine-6-phosphate [1]) [s⁻¹]	self-cleavage kobs at 2500 uM GlcN6P (glucosamine-6-phosphate [2]) [s⁻¹]	self-cleavage kobs at 10000 uM GlcN6P (glucosamine-6-phosphate [3]) [s⁻¹]
A12U A53G U56C	0.00708 ± 0.0025	0.0149 ± 0.0066	
A53G G66C C71G	8.43e-05 ± 2.2e-05		
A14G G29U A39U	0.00293 ± 0.0011		
A14C A64U C67U	< 1e-05		
U30G U49A G66C	< 1e-05		
U57G A64U U69G	0.000149 ± 5.9e-05	6.09e-05 ± 1.5e-05	
C10A G35C U55C	< 1e-05	< 1e-05	
A15U C16G U46C	< 1e-05		
A33U U46C G63A	< 1e-05	< 1e-05	
A12U C16U G43U	4.04e-05 ± 1.7e-05	7.33e-05 ± 1.4e-05	
A39G G60U C67G	< 1e-05	< 1e-05	< 1e-05
C10G U55A U57A	< 1e-05		
C34U A39C A53U	< 1e-05	< 1e-05	
C11U A12C G13U G38U U56A C71U	< 1e-05	< 1e-05	
C8G U30A G43U	< 1e-05		
U31C C67G C68G	5.49e-05 ± 1.6e-05		
A14U A48G G63C	< 1e-05		
G43U C50G C70G	< 1e-05		
G9U G29U C34A G41U U57G G59A	< 1e-05	< 1e-05	
C8U G43A U54C	< 1e-05		
